This assay deals with T1, Vps4^E233Q-3xHA (ATP hydrolysis deficient substrate trap mutant) (S. japonicus, UniProt B6K5C2 1-436, E233Q).
T1 sequence (looked up): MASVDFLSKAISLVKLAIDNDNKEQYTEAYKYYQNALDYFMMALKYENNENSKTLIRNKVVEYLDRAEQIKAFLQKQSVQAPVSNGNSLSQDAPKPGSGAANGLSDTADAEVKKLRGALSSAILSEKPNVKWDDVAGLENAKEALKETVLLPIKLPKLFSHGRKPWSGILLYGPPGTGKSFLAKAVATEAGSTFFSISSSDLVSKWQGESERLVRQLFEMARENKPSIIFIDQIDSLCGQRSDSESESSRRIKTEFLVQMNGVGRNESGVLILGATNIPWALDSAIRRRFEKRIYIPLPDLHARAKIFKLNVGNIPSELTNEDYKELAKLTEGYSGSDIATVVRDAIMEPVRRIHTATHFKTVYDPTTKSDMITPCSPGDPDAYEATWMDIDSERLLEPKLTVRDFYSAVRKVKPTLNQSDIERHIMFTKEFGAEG
Description: pull-down.

B1: GST-Did4 (natural protein, S. japonicus, UniProt B6K6Y8 1-208, looked up)
chain: MGMFDWIFGKQRSPAEVMRAHQRQLNRAERELDREQLKLDQREKGLIREIKANAKAGNVGAARVQARDLMRLRNSRKRMQNTKTQLQAIGLRLTTVRSSDQMMSSMRSATTLLTRMNRSANLPALTRITQQFERENDMMEQRQDMIDEQFEEGLEDEDEEEADELVDQVLDEIGVSLSQDLPSAAQANTTKADTISSGLNLEDLAHIR
For the molecule B1, the binding result was “binds”.

Source of the values: article PMC7139201 (Developmental cell, 2020).
